Experimental data taken from article PMC7736470.

Biological target: Neuropeptide Y (Homo sapiens), P01303
Settings: remark: other sources report otherwise

Kd: 35 nM
B1: Neuropeptide Y receptor type 2, P49146 (protein)
chain: MGPIGAEADENQTVEEMKVEQYGPQTTPRGELVPDPEPELIDSTKLIEVQVVLILAYCSIILLGVIGNSLVIHVVIKFKSMRTVTNFFIANLAVADLLVNTLCLPFTLTYTLMGEWKMGPVLCHLVPYAQGLAVQVSTITLTVIALDRHRCIVYHLESKISKRISFLIIGLAWGISALLASPLAIFREYSLIEIIPDFEIVACTEKWPGEEKSIYGTVYSLSSLLILYVLPLGIISFSYTRIWSKLKNHVSPGAANDHYHQRRQKTTKMLVCVVVVFAVSWLPLHAFQLAVDIDSQVLDLKEYKLIFTVFHIIAMCSTFANPLLYGWMNSNYRKAFLSAFRCEQRLDAIHSEVSVTFKAKKNLEVRKNSGPNDSFTEATNV
